In the emibetuzumab library of Makowski et al. (2022):

B1: VH:VL chains; a variant is named by its letters at X, in order (parent)
chain 1: QVQLVQSGAEVKKPGASVKVSCKASGYTFTDYXMHWVRQAPGQGLEWMGXVNPNXXXTTYNQKFEGRVTMTTDTSTSTAYMELRSLRSDDTAVYYCARXNXLDXWGQGTTVTVSS
chain 2: DIQMTQSPSSLSASVGDRVTITCSVSSSVSSIYLHWYQQKPGKAPKLLIYSTSNLASGVPSRFSGSGSGTDFTLTISSLQPEDFATYYCQVYSGYPLTFGGGTKVEIK

Variants of: B1
Test: yeast display scFab, FACS + sequencing
In short: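 For the non-specific binding call, a heavy-chain CDR mutant scFab library on the yeast surface was FACS-sorted and samples from two replicates were deep sequenced. Cells were labelled with anti-Myc and either biotinylated ovalbumin (260 μg/mL in PBSB, 3 h, room temperature) or soluble membrane proteins (130 μg/mL, 20 min on ice), with gates on the top 25% and bottom 10% of binders. With membrane protein and ovalbumin samples pooled, a sequence in ≥3 of 4 positive samples and no negatives was scored positive, and the converse rule scored negatives.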

Row | Variant | non-specific binding call
1 | VEEEGAGD | no binding
2 | SEEEGAGD | no binding
3 | VEEEGAGV | no binding
4 | VEEEGALD | no binding
5 | SEEEGASV | no binding
6 | VEEEGDAA | no binding
7 | VEEEGDAV | no binding
8 | SEEEGDAV | no binding
9 | VEEEGDGA | no binding
10 | VEEEGDGV | no binding
11 | VEEEGDSA | no binding
12 | VEEEGDVA | no binding
13 | SEEEGDVA | no binding
14 | VEEEGDVY | no binding
15 | VEEEGDWD | no binding
16 | SEEEGDWV | no binding
17 | VEEEGDWV | no binding
18 | DEEEGSAA | no binding
19 | AEEEGSAA | no binding
20 | SEEEGSAA | no binding
21 | FEEEGSAA | no binding
22 | VEEEGSAD | no binding

Row | Variant | non-specific binding call
23 | VEEEGSAV | no binding
24 | VEEEGSGA | no binding
25 | SEEEGSGV | no binding
26 | VEEEGSGV | no binding
27 | VEEEGSVD | no binding
28 | VEEEGSVS | no binding
29 | VEEEGSVV | no binding
30 | VEEEGSWV | no binding
31 | SEEGSDAS | no binding
32 | SEEGTAGA | no binding
33 | SEEGTAGD | no binding
34 | SEEGTDGV | no binding
35 | SEEGTDWD | no binding
36 | SEEGTDWY | no binding
37 | FEEGTDWY | no binding
38 | YEEGTDWY | no binding
39 | AEEKGSGD | no binding
40 | AEERASAF | binds
41 | VEERDAGD | no binding
42 | VEERDAVA | no binding
43 | VEERDDWF | no binding
44 | AEERDSVV | no binding

Row | Variant | non-specific binding call
45 | FEERNSLD | binds
46 | YEERSDAF | no binding
47 | YEERTAAA | binds
48 | FEETDAGD | binds
49 | FEETDASA | binds
50 | DEETNSGA | binds
51 | VEETSSLD | no binding
52 | VEGAAAGS | no binding
53 | VEGAADVD | no binding
54 | VEGAASWF | no binding
55 | YEGAASWF | no binding
56 | VEGAASWV | no binding
57 | SEGADAGD | no binding
58 | SEGADAVA chain 1 G106S | no binding
59 | VEGADAVA chain 1 G106S | no binding
60 | DEGAGDGF | binds
61 | VEGEDAAA | no binding
62 | DEGEDAGA | no binding
63 | VEGEDAGA | no binding
64 | YEGGADVA | no binding
65 | YEGGADVD | no binding
66 | YEGGADVF | no binding

Row | Variant | non-specific binding call
67 | VEGGADVF | no binding
68 | YEGGADVV | no binding
69 | DEGGDAGD | no binding
70 | SEGGDAGD | no binding
71 | SEGGDAWV | no binding
72 | DEGGDDAA | no binding
73 | VEGGGAAA | no binding
74 | VEGGGAAS | no binding
75 | DEGGGAGS | no binding
76 | VEGGGAGV | no binding
77 | VEGGGAVV | no binding
78 | VEGGGAWA | no binding
79 | VEGGGDAA | no binding
80 | DEGGGDGA | no binding
81 | VEGGGDGA | no binding
82 | YEGGGDGA | no binding
83 | YEGGGDGD | no binding
84 | VEGGGDGD | no binding
85 | VEGGGDGV | no binding
86 | YEGGGDLV | no binding
87 | YEGGGDVA | no binding
88 | VEGGGDVA | no binding

Row | Variant | non-specific binding call
89 | VEGGGDVD | no binding
90 | VEGGGDVV | no binding
91 | YEGGGDVY | no binding
92 | VEGGGDVY | no binding
93 | VEGGGDWA | no binding
94 | YEGGGDWF | no binding
95 | VEGGGDWS | no binding
96 | YEGGGDWV | no binding
97 | VEGGGFAY | no binding
98 | VEGGGFSV | no binding
99 | YEGGGFSV | no binding
100 | YEGGGSAV | no binding
101 | VEGGGSGV | no binding
102 | VEGGGSSA | no binding
103 | DEGGGSSA | no binding
104 | YEGGGSSA | no binding
105 | VEGGGSSS | no binding
106 | VEGGGSSV | no binding
107 | VEGGGSVD | no binding
108 | VEGGGYGV | no binding
109 | YEGGGYSF | no binding
